# Measurements from the supplement of paper PMC10126150.
# ± gives the standard deviation of the averaged measurements.
# Tested on: ATP
# Test: switch fluorescence ratio, 500 uM ATP over buffer (Cy3 cluster intensity, sum of 5 cycles each) (fold (ratio)); higher = stronger signal-on switching upon ATP binding; sequences stand for … in TCGTCGGCAGCGTCAGATGTGTATAAGAGACAGTTTTTTTTTTTTTTTTTTTTTTTTT…TC
# Details: aptamer strand: ATP DNA aptamer (quencher-CACCTGGGGGAGTATTGCGGAGGAAGG + anchor), 100 nM annealed; ATP concentration: 500 uM
# Outline: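 The fluorescence ratio divides summed target-cycle Cy3 intensity by summed buffer-cycle Cy3 intensity for each cluster and is averaged per switch-domain sequence. Cy3-labelled switching-strand clusters on a modified Illumina MiSeq flow-cell were annealed to 100 nM quencher-labelled ATP aptamer, then imaged in selection buffer and again after 15 min with 500 uM ATP at 22 °C. Five such cycles were run, with NaOH stripping and re-annealing between them, and clusters outside 100-1000 RFU were excluded.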
# 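Also: ATP exposure 15 min at 22 °C before imaging.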
row,Sequence,switch fluorescence ratio
1,GACTCAGAGG,1.03 ± 0.011
2,AGTGTAGCTT,1.07 ± 0.19
3,TTGGGATGGT,1.02 ± 0.029
4,GCCTTAAAGG,1.005 ± 0.0029
5,CTGCTACAGT,1.03 ± 0.02
6,TTTCCATCAC,1 ± 0.042
7,TGTATTTAAG,0.97 ± 0.035
8,AAAGGCGTAT,1.008 ± 0.0036
9,ATTTTTAGTT,0.991 ± 0.037
10,ATCAAGCAGT,1.41 ± 0.47
11,CGGTGGTTGC,1.03 ± 0.11
12,GACGGGGTGT,1.059 ± 0.0039
13,TGAAGTTAGT,0.975 ± 0.03
14,TACCTATTGG,0.9974 ± 0.0039
15,GGCTTTCATT,0.983 ± 0.013
16,CGCTCATTTG,0.97 ± 0.016
17,GGAATGTTGG,0.991 ± 0.032
18,CAGCGGGGCC,0.994 ± 0.011
19,ACTCTTATCA,1.01 ± 0.023
20,TGCATATAAT,1.018 ± 0.0014
21,TTCTGCTATC,1.79 ± 0.12
22,CCATGTGACT,1.034 ± 0.0057
23,TGGTAGCAGT,0.989 ± 0.037
24,GGTTGGACAG,0.988 ± 0.011
25,AGGGTGGCGC,1.02 ± 0.021
26,ATGTTAAATC,0.96 ± 0.029

row,Sequence,switch fluorescence ratio
1,AATCGCTGGG,0.988 ± 0.022
2,CCAAAGATAT,1.09 ± 0.03
3,CAGGTCGACT,0.972 ± 0.03
4,TGATTCGTTT,0.985 ± 0.094
5,TAGTGGGAGA,1.03 ± 0.029
6,CTGGTCGGCT,1.09 ± 0.014
7,AGGACTGTCT,0.986 ± 0.018
8,GGGGATCAGC,0.9912 ± 0.0036
9,GCTAATTGGC,1.04 ± 0.098
10,AGCATAAGCA,1.15 ± 0.27
11,AGGTGTTGGA,0.985 ± 0.032
12,ACAGTCTGCG,0.962 ± 0.037
13,AATCACGGTG,1.05 ± 0.052
14,CGTGGTTTGT,0.9874 ± 0.0051
15,TGGGGGCCGA,1.049 ± 0.0034
16,TTTCGTGTGG,1.01 ± 0.086
17,GATATTTTA,0.9929 ± 0.0069
18,AAGAAGTTGC,0.9861 ± 0.0034
19,CAGCAATTAT,2.95 ± 0.28
20,TGTGTTTCGG,0.9799 ± 0.0082
21,TTTAAAACTT,2.03 ± 1.4
22,CAATGGGTAT,0.978 ± 0.014
23,GAGGGGAAAT,0.999 ± 0.029
24,GCGGGGGAAA,1.02 ± 0.09
25,TATGGGCGTC,0.999 ± 0.011
26,AGGGACAACT,1.08 ± 0.0015

row,Sequence,switch fluorescence ratio
1,TGGGGAAATA,1.41 ± 0.57
2,TGACACAGGA,1.04 ± 0.024
3,TATCATCCGG,0.985 ± 0.032
4,CGGATGGGGG,1.01 ± 0.046
5,TTATGGGACA,1.026 ± 0.0097
6,TTGTTTACCC,0.9713 ± 0.0036
7,AGGTTTGCGA,1.02 ± 0.018
8,AGTGCGTTTG,1 ± 0.038
9,TGGTACGTGG,0.974 ± 0.032
10,AAATGGGTTG,1 ± 0.01
11,TATGGGGCAG,0.99 ± 0.0093
12,GTTTTGAGGT,1.02 ± 0.028
13,AGGTGGAAGG,0.984 ± 0.021
14,AGTTATCCAT,1.001 ± 0.0083
15,GAAACTGCTG,1.01 ± 0.029
16,CTCGGGGAGT,1.012 ± 0.0064
17,ATGGCTTAGC,0.983 ± 0.015
18,GCATTTTTTC,1.03 ± 0.019
19,AAATGTGTGG,0.977 ± 0.019
20,ATGGGCGAAC,1.63 ± 0.82
21,TTTGTGATTT,1.11 ± 0.27
22,CGGCTTTCCC,1.01 ± 0.028
23,ATGGGCTGG,0.975 ± 0.031
24,GGTGGAATGT,0.983 ± 0.049
25,GGGGTGGTAA,1.01 ± 0.02
26,AATGAATTGT,1.02 ± 0.022

row,Sequence,switch fluorescence ratio
1,ATCTTATCGT,0.982 ± 0.027
2,GCAAGAAAAA,1.023 ± 0.0056
3,CGTGTAAGGC,0.993 ± 0.025
4,GTTTTCCGGA,0.996 ± 0.05
5,TAAAAAACGG,0.954 ± 0.042
6,TAGGGTTTGG,0.992 ± 0.014
7,CTTCTGGAGG,1.15 ± 0.028
8,CTTAGTAGTT,1.01 ± 0.015
9,CATGTAGTA,0.987 ± 0.028
10,AGTTTTGGAG,1 ± 0.015
11,TCATGGCGCA,1.07 ± 0.013
12,CCAAAAGGTT,1.01 ± 0.017
13,TAGGGAATGA,1 ± 0.016
14,GGAAAGACGA,1.01 ± 0.016
15,TATGCCTTCG,1.09 ± 0.05
16,TGTAGATGGC,1.03 ± 0.044
17,GAGACTAGGT,1.04 ± 0.025
18,CGTTTAATCA,0.982 ± 0.018
19,TGGGGGAGTG,0.985 ± 0.024
20,GGGTTTGTAG,1.01 ± 0.056
21,GCAGTAAAGC,1.03 ± 0.032
22,TTACGATGGG,0.97086 ± 0.00075
23,GGGGTGTGCT,1.1 ± 0.16
24,ATGGGACGGG,1 ± 0.019
25,AATAGGGGTA,0.987 ± 0.029
26,GTTGTTTTTG,1.02 ± 0.028

row,Sequence,switch fluorescence ratio
1,CAGTGCATC,0.972 ± 0.053
2,ATGGAGGGCA,1.03 ± 0.049
3,TATGTTTTGT,1.02 ± 0.041
4,TTTTCTGACC,1.02 ± 0.012
5,TAATGACGCT,0.997 ± 0.027
6,AGGCTAACCG,0.985 ± 0.019
7,TATGTTAATG,0.999 ± 0.016
8,TGGGCGGGGG,1.03 ± 0.036
9,TGTGGTTGGA,1 ± 0.012
10,CCGAGTATGT,1.19 ± 0.034
11,AGGGGATTAC,1.062 ± 0.0014
12,CGGTAACCGG,0.979 ± 0.0098
13,GCGGGGCAGC,1.001 ± 0.0068
14,TGCCCATGGG,0.9956 ± 0.0045
15,CTGAGGGGCG,1.04 ± 0.057
16,TGGGCAGGGG,1.3 ± 0.57
17,AAATATTGGT,1.01 ± 0.03
18,ATATTGGCGC,1.01 ± 0.019
19,TGAGAAAGGT,0.965 ± 0.044
20,TCGGTGACAG,1.01 ± 0.018
21,TGGTAAAGTG,1.08 ± 0.1
22,TTAAAGATGG,1 ± 0.045
23,CGGCCGGGGA,1.14 ± 0.19
24,GGGGTTAAAT,1 ± 0.047
25,ATTGGGTCGG,0.996 ± 0.02
26,TTATAGGGCG,1.02 ± 0.047

row,Sequence,switch fluorescence ratio
1,AGAAATGACG,1 ± 0.037
2,CAACCTGGGA,1.022 ± 0.0017
3,ATTTGATTTG,1 ± 0.046
4,TGGGTGTTGG,1.01 ± 0.057
5,ACTTTGTTTT,1 ± 0.022
6,TTAAAAAGAG,0.999 ± 0.042
7,ATGACCGGGG,1.02 ± 0.023
8,CGTTATTCGG,0.965 ± 0.032
9,CTTAGTTAGC,1.02 ± 0.013
10,AGGCCGTTCG,0.9976 ± 0.0073
11,TGATATAGGA,1.01 ± 0.064
12,TTGGACATGC,1.06 ± 0.14
13,AAAACTGCGA,1.03 ± 0.067
14,CGTATAGTTA,0.987 ± 0.022
15,AGTGAGTCGG,0.979 ± 0.018
16,CGGTTGAGGT,0.999 ± 0.047
17,AAATTGTGTG,0.999 ± 0.0037
18,GGGGGGCTAA,0.984 ± 0.021
19,GGGAAGGAGG,1.02 ± 0.013
20,GTTTTGCTGT,0.986 ± 0.046
21,GCGAATCGTA,0.999 ± 0.049
22,TGAGGTAGGC,1.05 ± 0.024
23,GATGGCCCTT,0.99064 ± 0.00065
